Measured values taken from US20060188503A1.

Columns and labels:
[1] = target: KDR receptor on human umbilical vein endothelial cells (HUVEC) (human) (UniProt P35968); test: cell-based or functional assay
[2] = target: KDR receptor with a gD tag at the N-terminus, on CHO cells (UniProt P35968); test: cell-based or functional assay

Chain of KDR receptor on human umbilical vein endothelial cells (HUVEC) (human) (P35968 20-1356): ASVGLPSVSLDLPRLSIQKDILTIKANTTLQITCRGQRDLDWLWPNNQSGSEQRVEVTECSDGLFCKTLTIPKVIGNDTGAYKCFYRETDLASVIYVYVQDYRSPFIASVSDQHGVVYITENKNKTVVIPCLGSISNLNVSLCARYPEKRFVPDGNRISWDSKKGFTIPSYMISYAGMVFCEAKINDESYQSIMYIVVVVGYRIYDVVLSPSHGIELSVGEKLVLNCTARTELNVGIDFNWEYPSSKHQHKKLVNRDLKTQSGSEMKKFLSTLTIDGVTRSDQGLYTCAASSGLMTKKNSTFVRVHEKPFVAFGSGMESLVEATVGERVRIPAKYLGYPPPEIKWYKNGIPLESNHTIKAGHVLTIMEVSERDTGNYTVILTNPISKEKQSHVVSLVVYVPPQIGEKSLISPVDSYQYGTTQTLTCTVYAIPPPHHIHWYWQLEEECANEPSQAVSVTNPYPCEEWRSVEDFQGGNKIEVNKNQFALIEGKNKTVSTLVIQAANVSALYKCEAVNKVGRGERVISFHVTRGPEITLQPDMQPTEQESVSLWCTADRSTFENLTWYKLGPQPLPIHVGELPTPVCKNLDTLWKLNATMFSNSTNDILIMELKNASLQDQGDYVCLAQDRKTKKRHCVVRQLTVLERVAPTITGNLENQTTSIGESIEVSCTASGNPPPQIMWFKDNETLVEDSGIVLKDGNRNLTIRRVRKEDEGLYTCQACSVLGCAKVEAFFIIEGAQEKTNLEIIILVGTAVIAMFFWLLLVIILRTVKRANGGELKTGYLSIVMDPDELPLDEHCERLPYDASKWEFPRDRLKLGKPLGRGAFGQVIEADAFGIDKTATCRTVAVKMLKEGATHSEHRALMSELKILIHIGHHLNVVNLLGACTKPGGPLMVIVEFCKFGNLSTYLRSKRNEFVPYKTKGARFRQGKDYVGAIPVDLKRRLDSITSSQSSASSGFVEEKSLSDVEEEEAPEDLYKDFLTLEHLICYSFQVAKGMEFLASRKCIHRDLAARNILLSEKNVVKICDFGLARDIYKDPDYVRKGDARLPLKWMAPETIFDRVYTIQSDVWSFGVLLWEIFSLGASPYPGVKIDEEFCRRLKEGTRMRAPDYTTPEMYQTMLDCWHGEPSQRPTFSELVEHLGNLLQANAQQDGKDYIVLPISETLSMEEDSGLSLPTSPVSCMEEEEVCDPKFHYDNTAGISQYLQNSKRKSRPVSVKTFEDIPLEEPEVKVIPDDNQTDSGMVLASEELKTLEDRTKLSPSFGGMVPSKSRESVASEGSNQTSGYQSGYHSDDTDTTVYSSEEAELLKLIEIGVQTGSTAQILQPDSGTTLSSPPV

An Endothelial Cell Proliferation Activity (HUVEC, 3H-thymidine), concentration [1] of 0.5 nM and a Phosphorylation-Inducing Activity (KIRA), concentration at midpoint absorbance [2] of 2 nM were found for “Native VEGF (8-109) (from UniProt P15692 214-315) (ligand)” in this work.
